What was measured:
[1] = molecular target: T1, Human IL-17A重组蛋白 (IL-17A-His) (human, UniProt Q16552 24-155, limits assumed, biotinylated in the ELISA of paragraph 276 (Biotin-IL-17A-His); site not stated); test: ELISA, antibody coated at 2 ug/mL, Biotin-IL-17A-His titrated from 10 ug/mL, HRP-Streptavidin detection
T1 construct: Expressed in E. coli BL21 from pET28a and purified on a nickel column; also called IL-17A抗原蛋白; IL-17抗原
T1 sequence: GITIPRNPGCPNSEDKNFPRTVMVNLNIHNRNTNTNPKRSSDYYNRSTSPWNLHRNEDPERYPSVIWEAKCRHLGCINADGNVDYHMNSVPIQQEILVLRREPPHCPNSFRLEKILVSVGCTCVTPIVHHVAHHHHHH

[2] = molecular target: T1, Human IL-17A重组蛋白 (IL-17A-His); test: BLI, ForteBio OCTET R2, IL-17A-His immobilised on the sensor at 5 ug/mL, antibody 50-3.13 nM, 25℃
[3] = molecular target: T1, Human IL-17A重组蛋白 (IL-17A-His); test: cell-based or functional assay

EC50 [1]: 10.1 µg/mL
Kd [2]: 0.391 nM
IC50, luciferase activity of 293F-IL-17RA-IL-17Rc-ACT1-NFκB-Luc reporter cells stimulated with 0.1 μg/mL IL-17A [3]: 2.23 nM
B1: Ixekizumab (antibody, human IgG4 S228P, kappa, V domains shown)
VH: QVQLVQSGAEVKKPGSSVKVSCKASGYSFTDYHIHWVRQAPGQGLEWMGVINPMYGTTDYNQRFKGRVTITADESTSTAYMELSSLRSEDTAVYYCARYDYFTGTGVYWGQGTLVTVSS
VL: DIVMTQTPLSLSVTPGQPASISCRSSRSLVHSRGNTYLHWYLQKPGQSPQLLIYKVSNRFIGVPDRFSGSGSGTDFTLKISRVEAEDVGVYYCSQSTHLPFTFGQGTKLEIKR
notes: Made in-house in 293F cells from the synthesised variable regions cloned into hIgG4 and hIgKc vectors; purified on Protein A; also called 阳性对照抗体Ixekizumab; 阳性抗体

Reference: CN118005785A (BEILAI PHARMACEUTICAL CO LTD, dated 2024)
